We go through seven molecules from patent publication US9688764B2, “Methods of treating breast cancer by administering anti-human prolactin receptor (PRLR) antibodies” (REGENERON PHARMACEUTICALS, INC., priority 2013, dated 2017).

Test [1] addresses T1, PRLR-expressing cells (T47D) (Homo sapiens, UniProt P16471).
T1 construct: a native PRLR expressing cell line (T47D); endogenous in cells; host or cells: T47D
T1 sequence (P16471 25-622): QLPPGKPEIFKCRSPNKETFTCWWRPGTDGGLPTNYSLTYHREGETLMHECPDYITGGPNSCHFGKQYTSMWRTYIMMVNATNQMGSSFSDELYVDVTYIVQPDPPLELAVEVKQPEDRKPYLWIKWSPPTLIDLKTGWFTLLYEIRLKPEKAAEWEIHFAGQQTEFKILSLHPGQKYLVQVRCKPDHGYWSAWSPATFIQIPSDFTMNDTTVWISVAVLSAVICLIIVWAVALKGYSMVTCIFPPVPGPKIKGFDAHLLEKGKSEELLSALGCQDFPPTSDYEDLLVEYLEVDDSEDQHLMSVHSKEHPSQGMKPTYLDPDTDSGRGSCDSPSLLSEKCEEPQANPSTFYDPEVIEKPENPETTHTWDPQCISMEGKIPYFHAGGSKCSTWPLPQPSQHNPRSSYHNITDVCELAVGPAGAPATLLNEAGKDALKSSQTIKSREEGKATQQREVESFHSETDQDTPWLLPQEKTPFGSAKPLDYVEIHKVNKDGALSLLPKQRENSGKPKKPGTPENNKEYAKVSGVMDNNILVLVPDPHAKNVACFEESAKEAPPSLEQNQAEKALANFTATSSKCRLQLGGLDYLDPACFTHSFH
In words: Antibody binding and internalization by PRLR-expressing cells (imaging). The test is classed as cell-based. Particulars: [mAb] (0.67 nM); for % Internalization relative to Control I: alexa488 intensity in intracellular vesicles, 1 h at 37° C.; for % Total Binding relative to Control I: whole cell alexa488 intensity at 37° C. The method, then: In this Example, the internalization of anti-PRLR antibodies by PRLR-expressing cells (T47D) was assessed. Briefly, 20,000 T47D cells were seeded in collagen coated 96 well plates. […] Cells were then incubated with alexa488 conjugated anti-hFc Fab secondary antibodies for 30 minutes on ice followed by two additional PBS washes. Antibodies were allowed to internalize for 1 h at 37° C. in internalization buffer (PBS+2% FBS) or remained at 4° C. Cells were fixed in 4% formaldehyde, nuclei were stained with DRAQ5 (Cell signaling), and images were acquired on the ImageXpress micro XL (Molecular Devices). Whole cell alexa488 intensity at 37° C. (Binding) and the alexa488 intensity in the intracellular vesicles at 37° C. (Internalization) were determined via Columbus image analysis software (PerkinElmer).

In test [2] the test system is HEK293/mfPRLR. In words: FACS cell surface binding. Set-up: species or system macaca fascicularis. The method, then:
The ability of anti-PRLR antibodies to selectively bind PRLR expressing cell lines was next determined. Human, monkey macaca fascicularis, and mouse PRLR constructs with an HA tag were stably introduced into HEK293 cells via Lipofectamine 2000-mediated transfection methodology. Transfectants (HEK293/hPRLR, HEK293/mfPRLR and HEK293/mPRLR) were selected for at least 2 weeks in complete growth media plus G418.
Cell surface expression of PRLR on 293/hPRLR cells was assessed via FACS analysis. Briefly, 1×10^5 cells were incubated with 10 μg/ml of Control antibody I, or an isotype control for 30 min on ice in antibody dilution buffer. Following two washes with antibody dilution buffer, cells were incubated with 10 μg/ml of PE conjugated anti-human secondary antibodies for 30 min on ice. Following two additional washes, samples were run on a Hypercyt® cytometer and analyzed in FORECYT™ (IntelliCyt, Albuquerque, N. Mex.). The mean fluorescence intensities (MFI) were expressed as fold change above isotype control levels (background). FACS binding confirmed that Control I selectively bound to 293/hPRLR expressing cells with MFIs that were 30 fold above background (isotype ctrl) levels and less than 2 fold binding on parental cells.
Next, the anti-PRLR antibodies of the present invention were tested via FACS for selective binding to the engineered overexpressing PRLR HEK293 cell lines, as well as to non-expressing HEK293 cells and a native PRLR expressing cell line (T47D).

Test [3] deals with HEK293/hPRLR/STAT5-Luc cells (human PRLR). In words: STAT5-Luc luciferase reporter assay, blocking of PRL-mediated receptor activation. The test is classed as cell-based. Particulars: for Percent Blocking at 100 nM Antibody: 5 nM PRL; for IC50: 5 nM constant PRL, 6 hr at 37° C. The text has this:
The ability of anti-PRLR antibodies to block prolactin (PRL)-mediated receptor activation was examined in a luciferase-based reporter assay. The endocrine hormone PRL binds to the extracellular domain of its cognate receptor PRLR, triggering rapid homodimerization and activating several downstream signaling cascades.
In this example, an engineered cell line was used to determine the ability of anti-PRLR antibodies to block ligand activation of the PRLR receptor. Briefly, HEK293/hPRLR/STAT5-Luc cell lines with stable incorporation of a human PRLR expression cassette and the STAT5-dependent luciferase reporter were generated via sequential rounds of Lipofectamine® 2000-mediated transfection (LifeTechnologies, Carlsbad, Calif.). Cells were selected for at least two weeks in the presence of 500 μg/mL G418 (hPRLR) and 100 μg/mL hygromycin B (STAT5-Luc). The STAT5-Luc assay utilized 2×10^5 HEK293/hPRLR/STAT5-Luc cells seeded in complete growth medium on PDL-coated 96 well plates grown overnight at 37° C., 5% CO2. To generate antibody inhibition curves, cells were incubated (6 hr at 37° C.) with serially diluted anti-human PRLR antibodies (100 nM to 24 pM) in the presence of 5 nM constant PRL before recording signal. PRL dose response curves were generated by the addition of serially diluted PRL (100 nM to 24 pM) to cells and recording signal after a 6 hr (37° C.) incubation in the absence of antibodies. The ability of the antibodies to activate PRLR in the absence of ligand was also assessed.
Luciferase activity was measured with ONE-GLO™ reagent (Promega, Madison, Wis.). Relative light units (RLUs) were measured on a Victor luminometer (Perkin Elmer, Shelton, Conn.). EC50/IC50 values were determined from a four-parameter logistic equation over an 8-point response curve using GraphPad Prism. Percent blocking and percent activation are reported for the highest antibody dose.
Background: In a reporter assay the amount or activity of a reporter protein is the signal.

Chain of HEK293/mfPRLR (as listed by the source): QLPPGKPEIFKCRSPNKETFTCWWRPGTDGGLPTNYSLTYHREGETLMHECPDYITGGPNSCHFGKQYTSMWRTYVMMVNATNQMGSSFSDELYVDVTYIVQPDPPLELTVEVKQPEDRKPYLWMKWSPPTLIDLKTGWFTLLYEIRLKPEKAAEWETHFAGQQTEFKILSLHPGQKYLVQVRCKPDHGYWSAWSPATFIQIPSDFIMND

B1: H1H6976N: human IgG1 Fc form of H2M6976N; anti-PRLR; HCVR/LCVR SEQ ID NOs 386/394 (antibody, V domains shown)
VH: EVQLLESGGGFVQPGGSLRLSCAASGFTFSSYAMSWVRQAPGKGLEWVSIISSNGRYTYYADSVKGRFTISRDNSKNTLYLQMNSLRAEDTAVYYCATVTGDWFDPWGQGTLVTVSS
VL: DIQLTQSPSFLSASVGDRVTITCWASQDIDISLAWYQQKPGKAPKLLIYAASTLQSGVPSKFSGSGSGTDFTLTISSLQPEDFSTYYCQQLNSYPITFGQGTRLDIK
modifications: human IgG1 Fc
Consider B1, for which, in test [1], the “% Internalization relative to Control I” value came to 169.5% and the “% Total Binding relative to Control I” value is given as 180.4%. The “FACS Cell Binding (Fold Above Background)” value in test [2] turned out to be 29 Fold Above Background. Also, the “Percent Blocking at 100 nM Antibody” value in test [3] worked out at 23%.

B2: H1H6966N: human IgG1 Fc form of H2M6966N; anti-PRLR; HCVR/LCVR SEQ ID NOs 338/346 (antibody, V domains shown)
VH: QVQLVQSGAEVQKPGASVKVSCKVSGYTLTALSIHWVRQAPGKGLEWMGNFDPGDGETIHAQKFQGRVTMTGDTSTDTAYMELSSLRSEDTAVYYCVGVTFDYWGQGTLVTVSS
VL: EIVMTQSPATLSVSPGERATLSCRASQSVASNLAWYQQKPGQAPRLLLYGASTRATGIPARFSGSGSGTEFTLTISSLQSEDFALYYCQHYNNWPLTFGGGTKVEIK
modifications: human IgG1 Fc
Turning to B2, in test [1], the “% Internalization relative to Control I” value is reported as 137.2% and the “% Total Binding relative to Control I” value was 111.3%. For the same molecule, the “FACS Cell Binding (Fold Above Background)” value in test [2] came to 18 Fold Above Background. In addition, the “Percent Blocking at 100 nM Antibody” value in test [3] worked out at 54%.

B3: H1H6967N: human IgG1 Fc form of H2M6967N; anti-PRLR; HCVR/LCVR SEQ ID NOs 354/362 (antibody, V domains shown)
VH: EVQLVESGGDLVHPGRSLRLSCAASGFPFDEYAMHWVRQVPGKGLEWVSGISWSNNNIGYADSVKGRFTISRDNAKNSLYLQMNSLRPEDTAFYYCAKSGIFDSWGQGTLVTVSS
VL: EIVMTQSPATLSVSPGERATLSCRASQSVSRDLAWYQQKPGQAPRLLIHGASTRATGIPARFSGSGSGAEFTLIISSLQSEDFAVYYCQQYNNWPLTFGGGTKVEIK
modifications: human IgG1 Fc
As usually defined, the IC50 is the concentration needed to halve the response being measured. A lower IC50 goes with greater potency. Take B3: in test [1], the “% Internalization relative to Control I” value was determined as 168.6% and the “% Total Binding relative to Control I” value was 158.6%. Moreover, the “FACS Cell Binding (Fold Above Background)” value in test [2] is 28 Fold Above Background. In test [3], 0.768 nM corresponded to half-maximal inhibition (IC50) and the “Percent Blocking at 100 nM Antibody” value was determined as 100%.

B4: H1H6975N: human IgG1 Fc form of H2M6975N; anti-PRLR; HCVR/LCVR SEQ ID NOs 370/378 (antibody, V domains shown)
VH: EVHLVESGGGLVQPGGSLRLSCAASGFTFSSYEMNWVRQTPGKGLEWISHISSRSVIIYYADSVKGRFTISRDNAKNSLFLQMNSLRAEDTAVYFCAGITIFGIPEYWGQGTLVTVSS
VL: EIVLTQSPATLSLSPGERATLSCRASQSVSSYFAWYQQKPGQAPRLLIYDASSRATGIPTRFSGSGSGTDFTLTISSLEPEDFAVYYCQQRSSWPITFGQGTRLEIK
modifications: human IgG1 Fc
Consider B4, for which, in test [1], the “% Internalization relative to Control I” value is 214.2% and the “% Total Binding relative to Control I” value is recorded as 225.9%. Also, in test [2], the “FACS Cell Binding (Fold Above Background)” value stood at 29 Fold Above Background. For the same molecule, in test [3], half-maximal inhibition (IC50) required 0.241 nM and the “Percent Blocking at 100 nM Antibody” value is 100%.

B5: H1H6959N2: human IgG1 Fc form of H2M6959N2; anti-PRLR; HCVR/LCVR SEQ ID NOs 306/314 (antibody, V domains shown)
VH: EVQLVESGGGLVQPGRSLRLSCAASGFTFDDYAMHWVRQAPGKGLEWVSGISWHSGIIGYADSVKGRFTISRDNAKNSLYLQMNSLRTEDAALYYCAKIGSYFYFDSWGQGTLVTVSS
VL: EIVLTQSPGTLSLSPGERATLSCRASQSVSSNYLAWYQQKPGQAPRLLIYGASSRATGIPDRFSGSGSGTDFTLTISRLEPEDFAVYYCQQFGSSGYTFGQGTNLEIK
modifications: human IgG1 Fc
Turning to B5, in test [1], the “% Internalization relative to Control I” value is 15.3% and the “% Total Binding relative to Control I” value stood at 2.0%. Also, the “FACS Cell Binding (Fold Above Background)” value in test [2] came to 11 Fold Above Background. For the same molecule, in test [3], the “Percent Blocking at 100 nM Antibody” value is 52%.

B6: H1H6958N2: human IgG1 Fc form of H2M6958N2; anti-PRLR, receptor blocking; HCVR/LCVR SEQ ID NOs 290/298 (antibody, V domains shown)
VH: QVQLVESGGGVVQPGRSLRLSCGASGFTFRNYGMQWVRQGPGKGLEWVTLISFDGNDKYYADSVKGRFTISRDNSKNTLFLQMNSLRTEDTAVYYCARGGDFDYWGQGTLVTVSS
VL: DIQMTQSPSSLSASVGDRVTITCRASQDIRKDLGWYQQKPGKAPKRLIYAASSLHSGVPSRFSGSGSGTEFTLTISSLQPEDFATYYCLQHNSYPMYTFGQGTKLEIK
modifications: human IgG1 Fc
As to B6, in test [1], the “% Internalization relative to Control I” value came out at 169.0% and the “% Total Binding relative to Control I” value came out at 161.5%. In addition, the “FACS Cell Binding (Fold Above Background)” value in test [2] came to 30 Fold Above Background. In addition, in test [3], the IC50 stood at 0.198 nM and the “Percent Blocking at 100 nM Antibody” value is reported as 100%.

B7: H1H6960N: human IgG1 Fc form of H2M6960N; anti-PRLR; HCVR/LCVR SEQ ID NOs 322/330 (antibody, V domains shown)
VH: EVQLVESGGGLVKPGGSLRLSCAASGITFSSYSMNWVRQAPGKGLEWVSSISTRSSLIHYADSVKGRFTISRDNAKNSLYLQMNSLRDEDTAVYYCARWDAAAAFDYWGQGTLVIVSS
VL: DIQLTQSPSFLSASVGDRVTITCWASQGISSYLAWYQQKPGKAPKLLIYVASTLQSGVPSRFSGSGSGTEFTLTISSLQPEDFATYFCQQLNSYPLTFGGGTKVEIK
modifications: human IgG1 Fc
As for B7, in test [1], the “% Internalization relative to Control I” value was 120.0% and the “% Total Binding relative to Control I” value stood at 89.7%. Moreover, in test [2], the “FACS Cell Binding (Fold Above Background)” value worked out at 23 Fold Above Background. Moreover, in test [3], the IC50 was found to be 1.58 nM and the “Percent Blocking at 100 nM Antibody” value worked out at 100%.
